# B1: Histone acetyltransferase KAT8 (Homo sapiens), Q9H7Z6 (protein)
# chain: MAAQGAAAAVAAGTSGVAGEGEPGPGENAAAEGTAPSPGRVSPPTPARGEPEVTVEIGETYLCRRPDSTWHSAEVIQSRVNDQEGREEFYVHYVGFNRRLDEWVDKNRLALTKTVKDAVQKNSEKYLSELAEQPERKITRNQKRKHDEINHVQKTYAEMDPTTAALEKEHEAITKVKYVDKIHIGNYEIDAWYFSPFPEDYGKQPKLWLCEYCLKYMKYEKSYRFHLGQCQWRQPPGKEIYRKSNISVYEVDGKDHKIYCQNLCLLAKLFLDHKTLYFDVEPFVFYILTEVDRQGAHIVGYFSKEKESPDGNNVACILTLPPYQRRGYGKFLIAFSYELSKLESTVGSPEKPLSDLGKLSYRSYWSWVLLEILRDFRGTLSIKDLSQMTSITQNDIISTLQSLNMVKYWKGQHVICVTPKLVEEHLKSAQYKKPPITVDSVCLKWAPPKHKQVKLSKK
# Key:
# Details in all cases: Homo sapiens
# [1] = compound: CCCCCCCCCCCCCCCc1cccc(O)c1C(=O)O; test: Uncompetitive inhibition of recombinant N-terminal His6-tagged KAT8 (unknown origin) expressed in Escherichia Coli BL21 DE3 cells assessed as Km for acetyl coenzyme A at 80 uM
# [2] = compound: CCCCCCCCCCCCCCCc1cccc(O)c1C(=O)O; test: Uncompetitive inhibition of recombinant N-terminal His6-tagged KAT8 (unknown origin) expressed in Escherichia Coli BL21 DE3 cells assessed as Km for acetyl coenzyme A at 240 uM
# [3] = compound: CCCCCCCCCCCCCCCc1cccc(O)c1C(=O)O; test: Inhibition of recombinant N-terminal His6-tagged KAT8 (unknown origin) expressed in Escherichia Coli BL21 DE3 cells assessed as Vmax for histone H4 peptide at 240 uM
# [4] = compound: CCCCCCCCCCCCCCCc1cccc(O)c1C(=O)O; test: Uncompetitive inhibition of recombinant N-terminal His6-tagged KAT8 (unknown origin) expressed in Escherichia Coli BL21 DE3 cells assessed as Vmax for acetyl coenzyme A at 240 uM
# [5] = compound: CCCCCCCCCCCCCCCc1cccc(O)c1C(=O)O; test: Inhibition of recombinant N-terminal His6-tagged KAT8 (unknown origin) expressed in Escherichia Coli BL21 DE3 cells assessed as Vmax for histone H4 peptide at 160 uM
# [6] = compound: CCCCCCCCCCCCCCCc1cccc(O)c1C(=O)O; test: Uncompetitive inhibition of recombinant N-terminal His6-tagged KAT8 (unknown origin) expressed in Escherichia Coli BL21 DE3 cells assessed as Km for acetyl coenzyme A at 160 uM
# [7] = compound: CCCCCCCCCCCCCCCc1cccc(O)c1C(=O)O; test: Uncompetitive inhibition of recombinant N-terminal His6-tagged KAT8 (unknown origin) expressed in Escherichia Coli BL21 DE3 cells assessed as Vmax for acetyl coenzyme A at 80 uM
# [8] = compound: CCCCCCCCCCCCCCCc1cccc(O)c1C(=O)O; test: Inhibition of recombinant N-terminal His6-tagged KAT8 (unknown origin) expressed in Escherichia Coli BL21 DE3 cells assessed as Vmax for histone H4 peptide at 80 uM
# [9] = compound: CCCCCCCCCCCCCCCc1cccc(O)c1C(=O)O; test: Uncompetitive inhibition of recombinant N-terminal His6-tagged KAT8 (unknown origin) expressed in Escherichia Coli BL21 DE3 cells assessed as Vmax for acetyl coenzyme A at 160 uM
protein,measurement,setting,value
B1,Km,[1],2.4 µM
same,Km,[2],1 µM
same,Vmax,[3],12 pmol/min
same,Vmax,[4],6.1 pmol/min
same,Vmax,[5],12 pmol/min
same,Km,[6],1.9 µM
same,Vmax,[7],12 pmol/min
same,Vmax,[8],12 pmol/min
same,Vmax,[9],9.2 pmol/min

# From ChEMBL document CHEMBL3734689, “Enzyme kinetics and inhibition of histone acetyltransferase KAT8” (Eur J Med Chem, 2015)
